Assay results: patent US7718391B2, “Assays for identifying modulators of rhomboid polypeptides” (Medical Research Council, priority 2001, dated 2010)

Assays:
[1] = tested on: uncleavable Spitz-TGFα chimera (Spitz with residues 140-160 replaced by the equivalent residues from TGFα, with the TGFα C-terminus)
Drosophila EGF receptor = biological target: T1, Drosophila EGF receptor (UniProt P04412)
T1 sequence: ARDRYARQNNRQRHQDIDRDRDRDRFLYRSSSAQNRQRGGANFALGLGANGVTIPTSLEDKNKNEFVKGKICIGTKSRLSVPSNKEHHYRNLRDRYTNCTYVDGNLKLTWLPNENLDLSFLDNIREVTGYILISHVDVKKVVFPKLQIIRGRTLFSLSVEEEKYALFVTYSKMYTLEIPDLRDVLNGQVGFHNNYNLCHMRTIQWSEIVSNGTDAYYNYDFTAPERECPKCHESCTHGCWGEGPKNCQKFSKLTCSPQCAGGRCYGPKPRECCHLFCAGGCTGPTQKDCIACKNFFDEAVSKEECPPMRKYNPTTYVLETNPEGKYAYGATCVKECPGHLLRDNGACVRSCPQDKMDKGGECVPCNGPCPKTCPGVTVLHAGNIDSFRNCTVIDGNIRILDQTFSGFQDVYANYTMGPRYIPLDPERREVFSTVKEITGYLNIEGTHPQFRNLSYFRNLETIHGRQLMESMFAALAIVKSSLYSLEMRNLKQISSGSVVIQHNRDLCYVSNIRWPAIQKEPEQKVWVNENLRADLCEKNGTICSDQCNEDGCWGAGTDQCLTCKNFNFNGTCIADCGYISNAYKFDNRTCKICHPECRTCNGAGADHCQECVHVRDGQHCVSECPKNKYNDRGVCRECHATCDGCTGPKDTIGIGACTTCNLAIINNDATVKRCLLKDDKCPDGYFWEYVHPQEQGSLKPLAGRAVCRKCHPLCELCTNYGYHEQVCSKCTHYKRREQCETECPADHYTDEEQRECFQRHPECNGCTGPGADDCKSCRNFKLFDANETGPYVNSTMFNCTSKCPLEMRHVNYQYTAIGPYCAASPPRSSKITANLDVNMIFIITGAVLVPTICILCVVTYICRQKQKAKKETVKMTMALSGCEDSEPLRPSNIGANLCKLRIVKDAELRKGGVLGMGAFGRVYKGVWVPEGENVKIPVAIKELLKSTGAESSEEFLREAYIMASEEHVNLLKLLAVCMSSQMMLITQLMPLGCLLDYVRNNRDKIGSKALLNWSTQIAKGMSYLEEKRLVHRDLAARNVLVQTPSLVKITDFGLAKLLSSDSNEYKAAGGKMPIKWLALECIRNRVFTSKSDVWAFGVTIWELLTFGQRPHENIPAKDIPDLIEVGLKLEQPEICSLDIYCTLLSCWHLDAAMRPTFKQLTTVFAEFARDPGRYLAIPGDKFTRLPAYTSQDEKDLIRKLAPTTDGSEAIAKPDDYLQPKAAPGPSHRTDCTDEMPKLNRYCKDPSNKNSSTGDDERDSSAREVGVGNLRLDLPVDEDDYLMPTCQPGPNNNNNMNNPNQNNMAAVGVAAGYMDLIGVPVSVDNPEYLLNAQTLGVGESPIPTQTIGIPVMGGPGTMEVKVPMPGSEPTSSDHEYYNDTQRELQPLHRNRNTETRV

Drosophila Keren = tested on: T2, Drosophila Keren
T2 sequence: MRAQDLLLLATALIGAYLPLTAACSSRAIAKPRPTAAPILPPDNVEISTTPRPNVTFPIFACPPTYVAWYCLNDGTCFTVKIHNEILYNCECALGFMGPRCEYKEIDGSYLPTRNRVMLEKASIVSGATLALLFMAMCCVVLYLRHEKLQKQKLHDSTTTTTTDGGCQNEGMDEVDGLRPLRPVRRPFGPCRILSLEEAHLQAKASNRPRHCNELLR

[2] = tested on: T3, GFP-Spitz (Drosophila Spitz with EGFP inserted between residues 33 and 34)
T3 sequence: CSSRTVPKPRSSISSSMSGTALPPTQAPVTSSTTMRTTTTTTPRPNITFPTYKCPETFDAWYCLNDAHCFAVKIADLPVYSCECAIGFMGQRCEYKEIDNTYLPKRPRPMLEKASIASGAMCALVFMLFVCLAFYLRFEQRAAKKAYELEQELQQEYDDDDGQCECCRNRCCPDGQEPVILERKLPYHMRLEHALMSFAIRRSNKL

Drosophila Gurken = tested on: T4, Drosophila Gurken
T4 sequence: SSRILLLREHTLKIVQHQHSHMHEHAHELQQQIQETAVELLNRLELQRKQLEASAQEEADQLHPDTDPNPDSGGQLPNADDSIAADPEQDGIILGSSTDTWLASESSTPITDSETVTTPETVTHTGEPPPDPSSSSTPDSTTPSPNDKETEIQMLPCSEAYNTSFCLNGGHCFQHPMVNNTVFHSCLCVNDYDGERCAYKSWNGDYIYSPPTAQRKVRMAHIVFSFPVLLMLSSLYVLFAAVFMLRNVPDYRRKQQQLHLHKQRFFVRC

[3] = tested on: human TGFα (EGFP inserted between residues 32 and 33)

## Drosophila Rhomboid-4
[1]
  cleavage of polypeptide substrates: Rhomboid-4 cleaves all the polypeptide substrates tested so far, including ... the 'non-cleavable' Spitz/TGFα chimera
Drosophila EGF receptor
  cleavage of polypeptide substrates: Rhomboid-4 cleaves all the polypeptide substrates tested so far, including ... the completely unrelated Drosophila EGF receptor
Drosophila Keren
  cleavage of polypeptide substrates: Rhomboid-4 cleaves all the polypeptide substrates tested so far, including ... Keren
[2]
  cleavage of polypeptide substrates: Rhomboid-4 cleaves all the polypeptide substrates tested so far, including Spitz
Drosophila Gurken
  cleavage of polypeptide substrates: Rhomboid-4 cleaves all the polypeptide substrates tested so far, including ... Gurken
[3]
  cleavage of polypeptide substrates: Rhomboid-4 cleaves all the polypeptide substrates tested so far, including ... human TGFα
